For experiment [1], the target named is V3 loop-deleted (Δ297-329) HIV-1IIIB env glycoprotein expressed by vv-7ΔV3 (HIV-1 IIIB isolate) (UniProt P04578). As to the kind of experiment: cell-based or functional assay.
Experiment [2] concerns the target CD4 receptor on CD4+ cells (SupT-1 cells; IL-2-dependent CD4+ T lymphocytes) (UniProt P01730). Briefly: cell-based or functional assay.

For the substance “F105, human mAb directed against a discontinuous gp120 epitope overlapping the CD4 binding site (antibody)”, in experiment [1], the ADCC specific lysis (51Cr release, E:T 50:1) is less than 4%. With “V3 loop-deleted (Δ297-329) HIV-1IIIB env glycoprotein expressed by vv-7ΔV3 (from UniProt P04578 33-296; P04578 330-856)”, in experiment [2], the activation-induced apoptosis of CD4+ T lymphocytes (fragmented DNA, PI, 72 hrs) was less than 7%. In experiment [2], “full-length (wild-type) HIV-1IIIB env glycoprotein expressed by vv-WTP-2 (from UniProt P04578 33-856)” registered an apoptotic cells (sub-G1 DNA content, PI staining) in infected SupT-1 cells, 16 hr of 20% and a syncytium formation in infected SupT-1 cells of 80 to 90%.

Values taken from patent publication US20020182180A1.
